Source: paper PMC12102759 (Protein Science : A Publication of the Protein Society, 2025)
No end group written: not given here. *: point of attachment. FITC = O=C1OC2(c3ccc(O)cc3Oc3cc(O)ccc32)c2ccc(NC(=S)*)cc21

Experiments:
Settings in all cases: both partners purified
[1] = molecular target: SARS-CoV-2 NSP3 UBl1 domain (SARS-CoV-2, UniProt P0DTD1 819-925); test: fluorescence polarisation
[2] = molecular target: T1, talin-1 phosphotyrosine binding (TLN1 PTB) domain (human, UniProt Q9Y490 309-401); test: fluorescence polarisation; displacement: unlabelled peptide in serial dilution added to FITC-labelled probe peptide with the protein at 4x the KD value; 50 mM KPO4 pH 7.5; triplicates; sigmoidal dose-response fit
T1 construct: source: E. coli BL21 (DE3), purified (Ni Sepharose, tag cleaved with HRV 3C protease)

[3] = molecular target: SARS-CoV-2 non-structural protein 9 (NSP9) (SARS-CoV-2, UniProt P0DTD1 4141-4253); test: fluorescence polarisation
[4] = molecular target: G3BP1 NTF2-like domain (1–139), tag cleaved, for FP (human, UniProt Q13283 1-139); test: fluorescence polarisation
[5] = molecular target: SARS-CoV-2 NSP3 ADRP domain (SARS-CoV-2, UniProt P0DTD1 1023-1192); test: fluorescence polarisation
[6] = molecular target: SARS-CoV-2 NSP3 SUD-M domain (SARS-CoV-2, UniProt P0DTD1 1356-1493); test: fluorescence polarisation
[7] = molecular target: talin-1 phosphotyrosine binding (TLN1 PTB) domain (human, UniProt Q9Y490 309-401); test: fluorescence polarisation; saturation (direct binding): human bait protein in serial dilution added to 10 nM-master-mix FITC-labeled probe peptide; 50 mM KPO4 pH 7.5, DTT; triplicates; fit to a quadratic equation
[8] = molecular target: T2, talin‐1 PTB domain (309–401), tag cleaved, for FP (human, UniProt Q9Y490 309-401); test: fluorescence polarisation; human domains; saturation with FITC-labelled probe peptide or displacement by unlabelled peptide; 50 mM KPO4 pH 7.5, DTT; triplicates; the text does not tell which of the two gave each KD
T2 construct: also called TLN1 PTB; source: E. coli BL21 (DE3), purified (Ni Sepharose, HRV 3C cleavage)
T2 sequence (Q9Y490 309-401): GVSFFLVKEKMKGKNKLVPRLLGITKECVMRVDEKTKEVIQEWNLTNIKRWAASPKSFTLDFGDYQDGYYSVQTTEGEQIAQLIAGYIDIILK

Chain of G3BP1 NTF2-like domain (1–139), tag cleaved, for FP (Q13283 1-139): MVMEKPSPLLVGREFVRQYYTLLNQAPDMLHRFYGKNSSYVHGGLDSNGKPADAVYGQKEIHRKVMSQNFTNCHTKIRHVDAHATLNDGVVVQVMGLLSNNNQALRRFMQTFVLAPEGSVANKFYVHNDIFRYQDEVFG

B1: FITC-labelled NCOA2 peptide 1074-1089 (peptide)
peptide: SDEGALLDQLYLALRN
modifications: FITC on the N-terminus
For B1, the Kd [1] was 67 µM.

B2: TPTE2 wt peptide 92-107 (peptide)
peptide: Ac-LADLIFTDSKLYIPLE-NH2
With B2 the IC50 [2] was 15 µM.

B3: TPTE2_I104L peptide 92-107 (peptide)
peptide: Ac-LADLIFTDSKLYLPLE-NH2
B3 gave an IC50 [2] of 14 µM and a Kd [2] of 4.5 µM.

B4: TPTE2_K101A peptide 92-107 (peptide)
peptide: Ac-LADLIFTDSALYIPLE-NH2
Work on B4 yielded an IC50 [2] of 45 µM and a Kd [2] of 15 µM.

B5: TPTE2_F97Y peptide 92-107 (peptide)
peptide: Ac-LADLIYTDSKLYIPLE-NH2
For B5, the IC50 [2] was 440 µM.

B6: TPTE2_Y103W peptide 92-107 (peptide)
peptide: Ac-LADLIFTDSKLWIPLE-NH2
For B6, the IC50 [2] was 66 µM.

B7: TPTE2_S100N peptide 92-107 (peptide)
peptide: Ac-LADLIFTDNKLYIPLE-NH2
For B7, the IC50 [2] was 5.2 µM.

B8: TPTE2_I104A peptide 92-107 (peptide)
peptide: Ac-LADLIFTDSKLYAPLE-NH2
Work on B8 yielded an IC50 [2] of 55 µM.

B9: TPTE2_F97W peptide 92-107 (peptide)
peptide: Ac-LADLIWTDSKLYIPLE-NH2
Work on B9 yielded an IC50 [2] of 0.4 µM.

B10: FITC-labelled NKRF peptide 8-23 (peptide)
peptide: AEGIDIGEMPSYDLVL
modifications: FITC on the N-terminus
notes: NKRF residues 8-23
For B10, the Kd [3] was 15.5 µM.

B11: wildtype SARS‐CoV‐2 N_(12–26) peptide (peptide)
peptide: APRITFGGPSDSTGS
For B11, the Kd [4] was 2.3 µM.

B12: NOTCH4 wt peptide 1606-1621 (peptide)
peptide: QGAWLGAPEPWEPLLD
Binder B12 has an IC50 [3] of 205 µM.

B13: MBOAT1 wt peptide 17-32 (peptide)
peptide: STYLHPLSELLGIPLD
B13 gave an IC50 [5] of 175 µM.

B14: NCOA2 wt peptide 1073-1088 (peptide)
peptide: PSDEGALLDQLYLALR
Binder B14 has an IC50 [1] of 139 µM.

B15: FITC-labelled MBOAT1 peptide 16-31 (peptide)
peptide: GSTYLHPLSELLGIPL
modifications: FITC on the N-terminus
B15 gave a Kd [5] of 50.8 µM.

B16: PRDM14 wt peptide 196-211 (peptide)
peptide: QFTEEDLHFVLYGVTPY
B16 gave an IC50 [6] of 400 µM.

B17: FITC-labeled PIP5K1C probe peptide FITC-FPTDERSWVYSPLHYS (peptide)
peptide: {FITC}-FPTDERSWVYSPLHYS
notes: source: synthetic peptide (GeneCust)
B17 was tested, and the Kd [7] was 0.065 µM.

B18: wild‐type TPTE2_(92‐107) peptide (peptide)
peptide: LADLIFTDSKLYIPLE
notes: as for B17
B18 showed a Kd [8] of 4.5 µM.

B19: TPTE2 Y103W peptide (peptide)
peptide: LADLIFTDSKLWIPLE
notes: as for B17
Work on B19 yielded a Kd [8] of 22 µM.

B20: TPTE2 I104L peptide (peptide)
peptide: LADLIFTDSKLYLPLE
notes: as for B17
B20: binds [8].

B21: TPTE2 I104A peptide (peptide)
peptide: LADLIFTDSKLYAPLE
notes: as for B17
With B21 the Kd [8] was 18 µM.

B22: TPTE2_(92‐107) S100N peptide (peptide)
peptide: LADLIFTDNKLYIPLE
notes: as for B17
Binder B22 has a Kd [8] of 1.7 µM.

B23: TPTE2_(92‐107) F97Y peptide (peptide)
peptide: LADLIYTDSKLYIPLE
notes: as for B17
Binder B23 has a Kd [8] of 150 µM.

B24: TPTE2_(92‐107) F97W peptide (peptide)
peptide: LADLIWTDSKLYIPLE
notes: as for B17
With B24 the Kd [8] was 0.1 µM.

B25: FITC-labelled PRDM14 peptide 197-212 (peptide)
peptide: FTEEDLHFVLYGVTPS
modifications: FITC on the N-terminus
B25 was tested, and the Kd [6] was 19 µM.
